In paper doi:10.1101/2020.01.07.897124 (bioRxiv, 2020):
Where two headings read alike, the source gives them in different places.

Tests used:
cryo-EM structure [1] = biological target: the molecule itself; test: cryo-EM structure
cryo-EM structure [2] = biological target: the molecule itself; test: cryo-EM structure; remark: listed apart in the source

Protein | stoichiometry N (cryo-EM structure [1]) | stoichiometry N (cryo-EM structure [2])
human SOAT1 full-length (1-550), purified, tags removed (enzyme, UniProt P35610 1-550, looked up) MVGEEKMSLRNRLSKSRENPEEDEDQRNPAKESLETPSNGRIDIKQLIAKKIKLTAEAEELKPFFMKEVGSHFDDFVTNLIEKSASLDNGGCALTTFSVLEGEKNNHRAKDLRAPPEQGKIFIARRSLLDELLEVDHIRTIYHMFIALLILFILSTLVVDYIDEGRLVLEFSLLSYAFGKFPTVVWTWWIMFLSTFSVPYFLFQHWATGYSKSSHPLIRSLFHGFLFMIFQIGVLGFGPTYVVLAYTLPPASRFIIIFEQIRFVMKAHSFVRENVPRVLNSAKEKSSTVPIPTVNQYLYFLFAPTLIYRDSYPRNPTVRWGYVAMKFAQVFGCFFYVYYIFERLCAPLFRNIKQEPFSARVLVLCVFNSILPGVLILFLTFFAFLHCWLNAFAEMLRFGDRMFYKDWWNSTSYSNYYRTWNVVVHDWLYYYAYKDFLWFFSKRFKSAAMLAVFAVSAVVHEYALAVCLSFFYPVLFVLFMFFGMAFNFIVNDSRKKPIWNVLMWTSLFLGNGVLLCFYSQEWYARQHCPLKNPTFLDYVRPRSWTCRYVF | 4 | –
human SOAT1-dimer (66-550), purified, tags removed (domain or fragment, UniProt P35610 66-550, looked up) MKEVGSHFDDFVTNLIEKSASLDNGGCALTTFSVLEGEKNNHRAKDLRAPPEQGKIFIARRSLLDELLEVDHIRTIYHMFIALLILFILSTLVVDYIDEGRLVLEFSLLSYAFGKFPTVVWTWWIMFLSTFSVPYFLFQHWATGYSKSSHPLIRSLFHGFLFMIFQIGVLGFGPTYVVLAYTLPPASRFIIIFEQIRFVMKAHSFVRENVPRVLNSAKEKSSTVPIPTVNQYLYFLFAPTLIYRDSYPRNPTVRWGYVAMKFAQVFGCFFYVYYIFERLCAPLFRNIKQEPFSARVLVLCVFNSILPGVLILFLTFFAFLHCWLNAFAEMLRFGDRMFYKDWWNSTSYSNYYRTWNVVVHDWLYYYAYKDFLWFFSKRFKSAAMLAVFAVSAVVHEYALAVCLSFFYPVLFVLFMFFGMAFNFIVNDSRKKPIWNVLMWTSLFLGNGVLLCFYSQEWYARQHCPLKNPTFLDYVRPRSWTCRYVF | – | 2
